Test results taken from article PMC8357417, “CTP and parS coordinate ParB partition complex dynamics and ParA-ATPase activation for ParABS-mediated DNA partitioning” (eLife, 2021).
Where a chain is given by its changes, count along the chain named. In names and notes the source's numbering stands.

Legend:
[1] = biological target: EcoRI (Escherichia coli) (UniProt P00642); details: cited from earlier work
[2] = biological target: T1, ParAF (F-plasmid (E. coli)) (UniProt P62556)
T1 sequence: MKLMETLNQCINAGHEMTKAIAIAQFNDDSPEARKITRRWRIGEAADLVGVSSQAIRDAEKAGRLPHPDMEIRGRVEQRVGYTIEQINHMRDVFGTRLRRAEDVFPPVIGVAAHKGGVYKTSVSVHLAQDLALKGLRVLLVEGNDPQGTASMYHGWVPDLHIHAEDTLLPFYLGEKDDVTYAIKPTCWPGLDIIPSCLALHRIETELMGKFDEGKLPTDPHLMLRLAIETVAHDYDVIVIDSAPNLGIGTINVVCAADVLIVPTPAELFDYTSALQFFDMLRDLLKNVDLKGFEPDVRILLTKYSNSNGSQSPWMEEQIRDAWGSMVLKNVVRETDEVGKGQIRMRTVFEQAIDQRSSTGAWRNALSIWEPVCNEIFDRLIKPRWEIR

[3] = biological target: T1, ParAF (F-plasmid (E. coli)); remark: listed apart in the source
[4] = substrate: Nc1ccn([C@@H]2O[C@H](COP(=O)(O)OP(=O)(O)OP(=O)(O)O)[C@@H](O)[C@H]2O)c(=O)n1; test: phosphate release, MESG/purine nucleoside phosphorylase (EnzChek), initial rates; format: biochemical, Escherichia coli; details: no parSF DNA, 0.84 μM ParBF, 2 mM MgCl2, 100 mM NaCl, pH 7.5
[5] = biological target: the molecule itself; test: FRET or BRET; ParBF labelled with Alexa 488 or Alexa 594 mixed at equal concentrations, FRET efficiency in a plate reader; monomer to dimer; apparent KD
[6] = biological target: T2, ParAF-eGFP (F-plasmid (E. coli), UniProt P62556 1-388); test: TIRF microscopy of fluorescent proteins on an nsDNA carpet; as a5, with CTP (2 mM) and the 24 bp parSF fragment (1.1 uM); apparent rate constants; details: both partners purified
T2 construct: ParA ATPase of the F plasmid (ParAF, also called SopA); SGGG linker between ParAF and eGFP; concentrations and ratios are per monomer; also called SopA; source: E. coli BL21 DE3 AI, purified (HisTrap, Mono Q, S200 size exclusion)
T2 sequence (looked up): T1 sequence

[7] = biological target: T2, ParAF-eGFP; test: TIRF microscopy of fluorescent proteins on an nsDNA carpet; as a1, with ATPgammaS (1 mM) and CTP (2 mM), no parSF; wash with ATPgammaS and CTP; apparent rate constants; details: both partners purified
[8] = biological target: T2, ParAF-eGFP; test: TIRF microscopy of fluorescent proteins on an nsDNA carpet; as a6, with CDP instead of CTP, with the 24 bp parSF fragment (1.1 uM); apparent rate constants; details: both partners purified
[9] = biological target: T2, ParAF-eGFP; test: TIRF microscopy of fluorescent proteins on an nsDNA carpet; as a1, with the 24 bp parSF DNA fragment (1.1 uM) in the sample; apparent rate constants; details: both partners purified
[10] = biological target: T2, ParAF-eGFP; test: TIRF microscopy of fluorescent proteins on an nsDNA carpet; ParAF-eGFP (1 uM) and labelled ParBF variant (2 uM, or 10 uM for the 1-42-mCherry fusions) preincubated 10 min at room temperature with 1 mM ATPgammaS, infused over an nsDNA carpet, then washed with buffer containing ATPgammaS; no parSF, no C-nucleotide; 300 mM K-glutamate TIRFM buffer pH 7.5; apparent rate constants; details: both partners purified
[11] = biological target: T2, ParAF-eGFP; test: TIRF microscopy of fluorescent proteins on an nsDNA carpet; as a1, but the wash buffer contained ATPgammaS and 10 uM ParBF^1-42-mCherry or ParBF^(1-42 R36A)-mCherry; apparent rate constants; details: both partners purified
[12] = biological target: T2, ParAF-eGFP; test: TIRF microscopy of fluorescent proteins on an nsDNA carpet; ParAF-eGFP (1 uM) and labelled ParBF variant (2 uM, or 10 uM for the 1-42-mCherry fusions) preincubated 10 min at room temperature with 1 mM ATPgammaS, infused over an nsDNA carpet, then washed with buffer containing ATPgammaS; no parSF, no C-nucleotide; 300 mM K-glutamate TIRFM buffer pH 7.5; apparent rate constants; details: both partners purified; remark: listed apart in the source

Molecule: EcoRI (from UniProt P00642)
- Kd [1]: < 0.02 nM

Molecule: ParBF^1-42-mCherry-EcoRI^E111Q
- ParAF-ATPase stimulation against ParBF^1-42-mCherry-EcoRI^E111Q concentration: KA (apparent total concentration for half-maximum stimulation); pBR322 nsDNA + EcoRI DNA fragment [2]: 0.16 µM
- ParAF-ATPase stimulation against ParBF^1-42-mCherry-EcoRI^E111Q concentration: KA (apparent total concentration for half-maximum stimulation); pBR322 nsDNA + Scram DNA [2]: 0.16 µM
- ParAF-ATPase stimulation against ParBF^1-42-mCherry-EcoRI^E111Q concentration: K (half) [3]: 0.15 µM

B1: ParBF (Escherichia coli K-12) (protein)
chain: MKRAPVIPKHTLNTQPVEDTSLSTPAAPMVDSLIARVGVMARGNAITLPVCGRDVKFTLEVLRGDSVEKTSRVWSGNERDQELLTEDALDDLIPSFLLTGQQTPAFGRRVSGVIEIADGSRRRKAAALTESDYRVLVGELDDEQMAALSRLGNDYRPTSAYERGQRYASRLQNEFAGNISALADAENISRKIITRCINTAKLPKSVVALFSHPGELSARSGDALQKAFTDKEELLKQQASNLHEQKKAGVIFEAEEVITLLTSVLKTSSASRTSLSSRHQFAPGATVLYKGDKMVLNLDRSRVPTECIEKIEAILKELEKPAP
notes: full-length, C-terminal hexa-histidine tag kept, expressed in E. coli BL21 DE3 AI (plasmid pX8); dimer
- Km [4]: ~8 µM
- kcat [4]: ~0.00389 s⁻¹

B2: ParBF (full-length), ParBF-Alexa647 (natural protein, F-plasmid (E. coli), UniProt P62558 1-323, looked up)
chain: B1 chain
modifications: Alexa Fluor 647 C2 maleimide label (DNA-carpet TIRFM assays); Alexa 488 or Alexa 594 label (FRET dimerisation assay)
notes: ParB of the F plasmid (ParBF, also called SopB); One molecule for the same construct with different dyes; ATPase and magnetic-tweezers results are printed for 'ParBF' without a dye; concentrations and ratios are per monomer; also called Alexa647-ParBF; WT ParBF; source: E. coli BL21 DE3 AI, purified (HisTrap, Mono S, S200 size exclusion)
- Kd [5]: ~18.5 nM
- apparent koff of the ParAF-ParBF complex from the nsDNA carpet (ParBF signal), with CTP and parSF [6]: 0.0138 s⁻¹
- stoichiometry N [6]: 2.16 ParBF per ParAF (A:B ratio, monomers)
- apparent koff of the ParAF-ParBF complex from the nsDNA carpet (ParBF signal), with CTP [7]: 0.0108 s⁻¹
- stoichiometry N [7]: 2.16 ParBF per ParAF (A:B ratio, monomers)
- apparent koff of the ParAF-ParBF complex from the nsDNA carpet (ParBF signal), with CDP and parSF [8]: 0.00883 s⁻¹
- stoichiometry N [8]: 2.53 ParBF per ParAF (A:B ratio, monomers)
- apparent koff of the ParAF-ParBF complex from the nsDNA carpet (ParBF signal), with parSF [9]: 0.0137 s⁻¹
- stoichiometry N [9]: 2.17 ParBF per ParAF (A:B ratio, monomers)
- apparent koff of the ParAF-ParBF complex from the nsDNA carpet (ParBF signal) [10]: 0.0148 s⁻¹
- stoichiometry N [10]: 1.1 ParBF per ParAF (A:B ratio, monomers)

B3: ParBF^R121A (natural protein, F-plasmid (E. coli), UniProt P62558 1-323, looked up)
chain: B1 chain with R121A
modifications: Alexa Fluor 647 C2 maleimide label (fluorescently labeled ParBF^R121A)
notes: ParB of the F plasmid (ParBF, SopB) with R121A in the Box II region of the CTPase domain; ATPase results are printed without a dye; also called Box II mutant ParBF^R121A; source: E. coli BL21 DE3 AI, purified (HisTrap, Mono S, S200 size exclusion)
- apparent koff of the ParAF-ParBF^R121A complex from the nsDNA carpet (ParBF signal), with parSF [9]: 0.013 s⁻¹
- stoichiometry N [9]: 1.12 ParBF per ParAF (A:B ratio, monomers)
- apparent koff of the ParAF-ParBF^R121A complex from the nsDNA carpet (ParBF signal) [10]: 0.013 s⁻¹
- stoichiometry N [10]: 0.99 ParBF per ParAF (A:B ratio, monomers)

B4: ParBF^1-42-mCherry (domain or fragment, F-plasmid (E. coli))
chain: MKRAPVIPKHTLNTQPVEDTSLSTPAAPMVDSLIARVGVMAR
notes: ParBF^1-42 fused to the N-terminus of mCherry through an SGGG linker; His6 at the C-terminus of the fusion; Monomer by gel filtration; also called monomeric ParBF^1-42-mCherry; source: E. coli BL21 DE3 AI, purified (HisTrap after lysis in 6 M guanidinium chloride, S200 size exclusion); not shown: mCherry, C-terminal, kept
- apparent koff from the nsDNA carpet together with ParAF, ParBF^1-42-mCherry in the wash (ParBF signal) [11]: 0.0148 s⁻¹
- ParAF-ATPase stimulation against ParBF^1-42 concentration: KA (apparent total concentration for half-maximum stimulation); pBR322 nsDNA [2]: 1.2 µM
- koff [10]: 0.105 s⁻¹
- stoichiometry N [10]: 1.27 ParBF per ParAF (A:B ratio, monomers)

B5: ParBF^(1-42 R36A)-mCherry (domain or fragment, F-plasmid (E. coli))
chain: B4 chain with R36A
notes: SGGG linker between ParBF^(1-42 R36A) and mCherry; His6 at the C-terminus of the fusion; source: E. coli BL21 DE3 AI, purified (HisTrap after lysis in 6 M guanidinium chloride, S200 size exclusion); not shown: mCherry, C-terminal, kept
- steady-state density on the DNA carpet relative to ParBF^1-42-mCherry [12]: < 10%
- apparent koff from the nsDNA carpet together with ParAF, ParBF^(1-42 R36A)-mCherry in the wash (ParBF signal) [11]: 0.03 s⁻¹
- stoichiometry N [11]: 0.92 ParBF per ParAF (A:B ratio, monomers)
- ParAF-ATPase stimulation against ParBF^(1-42 R36A) concentration: KA (apparent total concentration for half-maximum stimulation); pBR322 nsDNA [2]: 108 µM
- koff [10]: 0.867 s⁻¹
